The record followed here is patent publication US20250332261A1.

The target of the experiment is human epidermal growth factor receptor 1 (EGFR1) (human) (UniProt P00533). The experiment can be described thus: tritium-labelled compound 5 µg/ml, 3 h +37 °C, FaDu cells, scintillation counting of lysate; internalized plus surface-bound; mean of three ± S.D.; negative control.

For the substance “Control-mAb (omalizumab, anti-IgE) (antibody)”, the % internalized/100000 cells (% internalized/100000 cells) was determined as 0.01.
